The source of these data is patent US20260265354A1 (JIANGSU MABWELL HEALTH PHARMACEUTICAL R AND D, published 2026).

For one assay, the target named is T1, Nectin-1 (UniProt Q15223 31-334, limits assumed).
T1 construct: Bought recombinant protein; also called CD111; PVRL-1
T1 sequence (looked up): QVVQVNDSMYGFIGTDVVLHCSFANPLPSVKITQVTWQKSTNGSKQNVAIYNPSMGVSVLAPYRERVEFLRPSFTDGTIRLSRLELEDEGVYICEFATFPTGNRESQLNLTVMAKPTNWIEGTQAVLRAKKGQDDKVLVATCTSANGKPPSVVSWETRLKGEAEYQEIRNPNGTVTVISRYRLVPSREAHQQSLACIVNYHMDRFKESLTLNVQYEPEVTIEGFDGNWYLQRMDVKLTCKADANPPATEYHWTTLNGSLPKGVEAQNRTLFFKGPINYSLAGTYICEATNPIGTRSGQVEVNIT
Description: ELISA, coated antigen.

In assay [1] the target is T2, Nectin-3 (UniProt Q9NQS3 58-404, limits assumed).
T2 construct: Bought recombinant protein; also called CD113; PVRL-3
Description: ELISA, coated antigen. A general note: ELISA stands for enzyme-linked immunosorbent assay.

A further assay addresses T3, Nectin-like-5 (UniProt P15151 21-343).
T3 construct: Bought recombinant protein; also called CD155; PVR
T3 sequence (looked up): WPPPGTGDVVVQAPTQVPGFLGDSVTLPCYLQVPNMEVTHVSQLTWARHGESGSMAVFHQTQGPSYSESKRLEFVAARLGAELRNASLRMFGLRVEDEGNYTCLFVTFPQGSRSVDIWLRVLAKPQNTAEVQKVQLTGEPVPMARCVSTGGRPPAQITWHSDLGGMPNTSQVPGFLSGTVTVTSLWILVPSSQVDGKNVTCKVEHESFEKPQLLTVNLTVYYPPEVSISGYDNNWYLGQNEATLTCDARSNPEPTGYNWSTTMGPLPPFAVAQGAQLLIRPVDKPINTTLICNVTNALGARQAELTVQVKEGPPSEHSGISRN
Description: ELISA, coated antigen.

In the next assay the target is T4, Nectin-like-4 (UniProt Q8NFZ8 21-324, limits assumed).
T4 construct: Bought recombinant protein; also called CADM4; IgSF4C
T4 sequence (looked up): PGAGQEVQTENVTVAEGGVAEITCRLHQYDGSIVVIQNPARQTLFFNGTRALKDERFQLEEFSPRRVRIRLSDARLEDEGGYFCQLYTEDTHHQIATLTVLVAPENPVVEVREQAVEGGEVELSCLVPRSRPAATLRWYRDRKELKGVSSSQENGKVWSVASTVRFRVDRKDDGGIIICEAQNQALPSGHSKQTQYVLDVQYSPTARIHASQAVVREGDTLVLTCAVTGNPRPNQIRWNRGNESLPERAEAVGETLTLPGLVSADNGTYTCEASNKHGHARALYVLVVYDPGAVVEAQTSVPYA
Description: ELISA, coated antigen.

Assay [2] concerns the target T5, Nectin-like-2 (UniProt Q9BY67 45-374, limits assumed).
T5 construct: Bought recombinant protein; also called CADM1; IgSF4
T5 sequence (looked up): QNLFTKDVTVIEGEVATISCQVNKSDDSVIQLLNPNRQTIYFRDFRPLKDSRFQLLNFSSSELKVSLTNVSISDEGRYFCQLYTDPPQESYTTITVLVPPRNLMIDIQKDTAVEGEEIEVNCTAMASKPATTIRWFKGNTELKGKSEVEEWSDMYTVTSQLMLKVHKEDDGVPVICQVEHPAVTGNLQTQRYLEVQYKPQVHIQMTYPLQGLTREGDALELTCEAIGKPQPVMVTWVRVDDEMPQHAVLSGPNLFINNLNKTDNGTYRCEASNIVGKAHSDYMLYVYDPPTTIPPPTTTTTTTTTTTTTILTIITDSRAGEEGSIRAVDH
Description: ELISA, coated antigen.

A further assay has as its target T6, Nectin-like-1 (UniProt Q8N126 25-330, limits assumed).
T6 construct: Bought recombinant protein; also called CADM3; IgSF4B
T6 sequence (looked up): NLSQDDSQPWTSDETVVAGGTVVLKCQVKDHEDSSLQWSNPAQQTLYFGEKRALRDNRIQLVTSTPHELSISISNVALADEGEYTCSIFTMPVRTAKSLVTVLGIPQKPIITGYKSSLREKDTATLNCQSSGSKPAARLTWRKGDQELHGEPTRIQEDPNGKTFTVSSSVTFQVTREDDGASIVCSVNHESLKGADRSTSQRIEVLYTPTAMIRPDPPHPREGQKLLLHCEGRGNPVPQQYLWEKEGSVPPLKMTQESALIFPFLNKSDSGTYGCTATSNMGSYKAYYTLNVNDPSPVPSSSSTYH
The experiment in a line: ELISA, coated antigen.

Assay [3] has as its target T2, Nectin-3. The experiment in a line: ELISA, coated antigen, antibody at 10000 ng/ml. On the procedure: (§1) Coating: Nectin-1, Nectin-2, Nectin-3, Nectin-4, Nectin-like-1, Nectin-like-2, Nectin-like-3, Nectin-like-4, and Nectin-like-5 were diluted to 5 μg/ml in coating buffer (carbonate buffer, pH 9.6) respectively. A 96-well plate was coat with 100 μl per well and incubated overnight at 2-8° C.;
(§2) Sample loading: The plate was taken out, patted dry, and washed twice with 200 μl/well of PBST, then patted dry. The Nectin-4 antibodies prepared in Example 1 (antibody MM11, antibody R012, and antibody R036) were diluted with 1% BSA/PBST to concentrations of 10 μg/ml, 1 μg/ml, 100 ng/ml, and 10 ng/ml, respectively. 1% BSA/PBST solution for dilution was set as a blank control. 100 μl per well was added to the 96-well plate, and incubated at room temperature for 2 hours;
(§3) Reaction termination and plate reading: 100 μl/well of 1 mol/L H3PO4 was added to terminate the reaction and the plated was read. The absorbances of wells in the plate at 450 nm with 650 nm as reference wavelength were read and recorded as OD_{450 nm-650 nm}.

Assay [4] deals with T7, recombinant human Nectin-4 protein (human, UniProt Q96NY8 32-349).
T7 construct: Prepared in-house (Jiangsu Mabwell) by transient transfection of CHO cells; also called PVRL-4; PRR-4
T7 sequence: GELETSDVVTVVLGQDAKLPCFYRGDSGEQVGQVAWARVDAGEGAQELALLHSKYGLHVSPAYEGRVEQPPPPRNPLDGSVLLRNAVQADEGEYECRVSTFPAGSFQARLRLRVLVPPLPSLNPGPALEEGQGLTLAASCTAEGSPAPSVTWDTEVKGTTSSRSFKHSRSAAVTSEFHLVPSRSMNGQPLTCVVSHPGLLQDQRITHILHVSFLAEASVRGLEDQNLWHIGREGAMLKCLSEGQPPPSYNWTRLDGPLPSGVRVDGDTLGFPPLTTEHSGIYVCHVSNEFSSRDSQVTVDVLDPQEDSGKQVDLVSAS
The experiment in a line: ELISA, coated antigen, antibody at 10000 ng/ml. On the procedure: as §1, §2, §3

For assay [5], the target named is T5, Nectin-like-2. The experiment in a line: ELISA, coated antigen, antibody at 10000 ng/ml. The procedure: as §1, §2, §3

Positions count from the first letter of the chain named.

T2 sequence (Q9NQS3 58-404 limits assumed): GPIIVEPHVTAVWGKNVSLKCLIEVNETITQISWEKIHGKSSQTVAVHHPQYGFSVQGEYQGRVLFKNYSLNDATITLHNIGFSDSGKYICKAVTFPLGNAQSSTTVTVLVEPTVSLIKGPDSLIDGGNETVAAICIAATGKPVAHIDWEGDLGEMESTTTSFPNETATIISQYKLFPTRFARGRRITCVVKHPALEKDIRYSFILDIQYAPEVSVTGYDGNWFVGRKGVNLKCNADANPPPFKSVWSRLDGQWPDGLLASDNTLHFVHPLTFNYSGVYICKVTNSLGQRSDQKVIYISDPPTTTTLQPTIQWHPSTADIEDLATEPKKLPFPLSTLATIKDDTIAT

B1: Antibody MM11 (antibody, mouse IgG1, kappa, V domains shown)
VH: DVQLQESGPGLVKPSQSLSLTCSVTGYSITSNFYWNWIRQFPGNRLEWMGYISYDGSNNYNPSLKNRISISRDTSKNQFFLKLNSVTTEDTATYYCVRADYWGQGTLVTVSA
VL: DTVMTQTPLSLPVSLGDQASISCRSSQSLESSDGHAYLNWYLQKPGQSPQLLIYRVSNRFSGVLHRFSGSGSGTDFTLKISRVEAEDLGVYFCLQFTHVPFTFGSGTKLEIKR
notes: Mouse monoclonal antibody from hybridoma; also called Nectin-4 mouse monoclonal antibody MM11; mouse antibody MM11
Consider B1, for which the binding result with Nectin-1, in the assay with Nectin-3 [1], in the assay with Nectin-like-5, with Nectin-like-4, in the assay with Nectin-like-2 [2] and with Nectin-like-1 was “no binding (tested: 10000 ng/ml)” throughout. In addition, the figures for the OD detection value (with Nectin-3 [3]; in assay [4]; with Nectin-like-2 [5]) were 0.006 OD450 nm-650 nm, 1.97 OD450 nm-650 nm and 0.005 OD450 nm-650 nm, respectively.

B2: Antibody R012 (antibody, V domains shown)
VH: SKSVEESGGRLVTPGTPLTLTCTVSGFSLSTYAMSWVRQAPGKGLEYIGIISGRGTTYYASWLKGRFTISKTSTTVDLKITSPTTEDTATYFCARDAGISDVYTGYFNLWGQGTLVTVSS
VL: QPVLAQLPSASAALGASAKLTCTLSSAHRTYTIAWYQQQQGEAPRYLMMLKSDGSYTKGTGVPDRFSGSSSGADRYLIISSVQAADEADYYCGADDSGGYVFGGGTQLTVTG
notes: Rabbit monoclonal antibody from phage display; also called Nectin-4 rabbit monoclonal antibody R012; rabbit antibody R012
Consider B2, for which the binding result in the assay with Nectin-1, with Nectin-3 [1], with Nectin-like-5, with Nectin-like-4, with Nectin-like-2 [2] and with Nectin-like-1 was “no binding (tested: 10000 ng/ml)” each time. In addition, the OD detection value is 0.007 OD450 nm-650 nm in the assay with Nectin-3 [3], 1.51 OD450 nm-650 nm in assay [4] and 0.009 OD450 nm-650 nm with Nectin-like-2 [5].

B3: Antibody R036 (antibody, V domains shown)
VH: SQSVEESGGRLVTPGTPLTLTCTVSGFSLSSYAMSWVRQAPGKGLEYIGIIGGRGTTYYAIWAKGRFTISKTSTTVDLKITSPTTEDTATYFCARDAGTTYVGTTYVATGYFNLWGQGTLVTVSS
VL: B2 VL with A5T, L7P, R29K, M49I, K58R, A85D
notes: Rabbit monoclonal antibody from phage display; also called Nectin-4 rabbit monoclonal antibody R036; rabbit antibody R036
Turning to B3, the binding result in the assay with Nectin-1, in the assay with Nectin-3 [1], in the assay with Nectin-like-5, with Nectin-like-4, in the assay with Nectin-like-2 [2] and in the assay with Nectin-like-1 was “no binding (tested: 10000 ng/ml)” throughout. Also, the values for the OD detection value (with Nectin-3 [3]; in assay [4]; with Nectin-like-2 [5]) were 0.008 OD450 nm-650 nm, 1.63 OD450 nm-650 nm and 0.008 OD450 nm-650 nm, respectively.
